Test results taken from the Immune Epitope Database (IEDB).

Legend:
HLA-A*01:01 = experiment: IEDB peptide-MHC binding, purified MHC/competitive/fluorescence; filed as Kd, often an IC50 or EC50 that approximates it; ≥ and ≤ were set here for values at or beyond the usual limits of such assays; conditions: source organism: Salmonella enterica subsp. enterica serovar Typhi
HLA-A*03:01 [1] = experiment: as above; conditions: source organism: Salmonella enterica subsp. enterica serovar Typhi
HLA-B*57:01 [2] = experiment: IEDB peptide-MHC binding, purified MHC/competitive/radioactivity; filed as Kd, often an IC50 or EC50 that approximates it; ≥ and ≤ were set here for values at or beyond the usual limits of such assays
HLA-B*58:01 [3] = experiment: as above
HLA-B*15:17 = experiment: IEDB peptide-MHC binding, purified MHC/competitive/fluorescence; filed as Kd, often an IC50 or EC50 that approximates it; ≥ and ≤ were set here for values at or beyond the usual limits of such assays; conditions: source organism: Zaire ebolavirus
HLA-B*57:01 [4] = experiment: as above; conditions: source organism: Zaire ebolavirus
HLA-A*02:01 = experiment: as above; conditions: source organism: Zaire ebolavirus
HLA-B*39:01 = experiment: as above; conditions: source organism: Zaire ebolavirus
HLA-B*51:01 = experiment: as above; conditions: source organism: Zaire ebolavirus
HLA-A*69:01 = experiment: as above; conditions: source organism: Zaire ebolavirus
HLA-B*18:01 = experiment: as above; conditions: source organism: Zaire ebolavirus
HLA-B*46:01 = experiment: as above; conditions: source organism: Zaire ebolavirus
HLA-A*26:01 = experiment: as above; conditions: source organism: Zaire ebolavirus
HLA-B*27:03 = experiment: as above; conditions: source organism: Zaire ebolavirus
HLA-B*15:01 = experiment: as above; conditions: source organism: Zaire ebolavirus
HLA-A*02:19 = experiment: IEDB peptide-MHC binding, purified MHC/direct/fluorescence; filed as Kd, often an IC50 or EC50 that approximates it; ≥ and ≤ were set here for values at or beyond the usual limits of such assays
HLA-A*02:16 = experiment: as above
HLA-A*29:02 = experiment: as above
HLA-A*02:12 = experiment: as above
HLA-A*24:03 = experiment: as above; conditions: source organism: Zaire ebolavirus
HLA-A*02:03 = experiment: as above
HLA-A*02:11 = experiment: as above
HLA-A*03:01 [5] = experiment: as above
HLA-A*68:02 = experiment: as above
HLA-A*32:01 = experiment: IEDB peptide-MHC binding, purified MHC/competitive/radioactivity; filed as Kd, often an IC50 or EC50 that approximates it; ≥ and ≤ were set here for values at or beyond the usual limits of such assays
HLA-A*24:02 = experiment: IEDB peptide-MHC binding, purified MHC/competitive/fluorescence; ≥ and ≤ were set here for values at or beyond the usual limits of such assays; conditions: source organism: Sudan ebolavirus
HLA-B*58:01 [6] = experiment: IEDB peptide-MHC binding, purified MHC/direct/fluorescence; filed as Kd, often an IC50 or EC50 that approximates it; ≥ and ≤ were set here for values at or beyond the usual limits of such assays; conditions: source organism: Ebola virus - Eckron (Zaire, 1976)
[7] = source organism: Dengue virus 4 Philippines/H241/1956
[8] = source organism: Ebola virus Yambio0403
[9] = source organism: Dengue virus 2 Jamaica/1409/1983
[10] = source organism: Zaire ebolavirus
[11] = source organism: Dengue virus 1 Singapore/S275/1990

For GTTEVNGLY, the Kd (HLA-A*01:01) was 0.0153 µM and the Kd (HLA-A*03:01 [1]) was 2.16 µM.
For RAKGSRAIW, the Kd (HLA-B*57:01 [2]; [7]) was 0.172 µM and the Kd (HLA-B*58:01 [3]; [7]) was 0.0271 µM.
For SWHHTSDDF, the Kd (HLA-B*15:17) was ≥ 20 µM, the Kd (HLA-B*57:01 [4]) was ≥ 20 µM and the Kd (HLA-A*02:01) was ≥ 20 µM. The Kd (HLA-B*39:01) was ≥ 20 µM, the Kd (HLA-B*51:01) was ≥ 20 µM and the Kd (HLA-A*69:01) was ≥ 20 µM. For the same sequence, the Kd (HLA-B*18:01) was ≥ 20 µM, the Kd (HLA-B*46:01) was ≥ 20 µM and the Kd (HLA-A*26:01) was ≥ 20 µM. The Kd (HLA-B*27:03) was ≥ 20 µM, the Kd (HLA-B*15:01) was ≥ 20 µM and the Kd (HLA-A*02:19; [8]) was ≥ 20 µM. For the same sequence, the Kd (HLA-A*02:16; [8]) was ≥ 20 µM, the Kd (HLA-A*29:02; [8]) was ≥ 20 µM and the Kd (HLA-A*02:12; [8]) was ≥ 20 µM. For the same sequence, the Kd (HLA-A*24:03) was 0.0187 µM, the Kd (HLA-A*02:03; [8]) was ≥ 20 µM and the Kd (HLA-A*02:11; [8]) was ≥ 20 µM. For the same sequence, the Kd (HLA-A*03:01 [5]; [8]) was ≥ 20 µM and the Kd (HLA-A*68:02; [8]) was ≥ 20 µM.
With HTWTEQYKF the Kd (HLA-B*57:01 [2]; [9]) was 0.00237 µM and the Kd (HLA-A*32:01; [9]) was 0.151 µM.
For KCNPNLHYW, the Kd (HLA-A*02:01) was ≥ 20 µM, the Kd (HLA-B*39:01) was ≥ 20 µM and the Kd (HLA-A*69:01) was ≥ 20 µM. The Kd (HLA-B*18:01) was ≥ 20 µM, the Kd (HLA-B*46:01) was ≥ 20 µM and the Kd (HLA-A*26:01) was ≥ 20 µM. For the same sequence, the Kd (HLA-B*27:03) was ≥ 20 µM, the IC50 (HLA-A*24:02) was 0.376 µM and the Kd (HLA-A*02:19; [10]) was ≥ 20 µM. The Kd (HLA-A*02:16; [10]) was ≥ 20 µM, the Kd (HLA-A*29:02; [10]) was ≥ 20 µM and the Kd (HLA-A*02:12; [10]) was ≥ 20 µM. For the same sequence, the Kd (HLA-A*02:03; [10]) was ≥ 20 µM, the Kd (HLA-A*02:11; [10]) was ≥ 20 µM and the Kd (HLA-A*03:01 [5]; [10]) was ≥ 20 µM. The Kd (HLA-A*68:02; [10]) was ≥ 20 µM and the Kd (HLA-B*58:01 [6]) was 2.6 µM.
Work on TTFSLHYAW yielded a Kd (HLA-B*57:01 [2]; [11]) of 0.00142 µM, a Kd (HLA-A*32:01; [11]) of 0.00133 µM and a Kd (HLA-B*58:01 [3]; [11]) of 0.00159 µM.
Work on WMADVPLQW yielded a Kd (HLA-B*58:01 [3]; source organism: Dengue virus 3 Singapore/8120/1995) of 0.000528 µM.
In the case of SAIVLEFFMM, the Kd (HLA-B*58:01 [3]; source organism: Dengue virus 3 Martinique/1243/1999) is reported as 0.198 µM.
